Data on 2 molecules can be found in patent publication US8765444 (BOARD OF TRUSTEES OF THE UNIVERSITY OF ILLINOIS, dated 2014).

Assay [1] addresses T1, HA-γ134.5 (HSV-1, UniProt P08353 1-263).
T1 sequence: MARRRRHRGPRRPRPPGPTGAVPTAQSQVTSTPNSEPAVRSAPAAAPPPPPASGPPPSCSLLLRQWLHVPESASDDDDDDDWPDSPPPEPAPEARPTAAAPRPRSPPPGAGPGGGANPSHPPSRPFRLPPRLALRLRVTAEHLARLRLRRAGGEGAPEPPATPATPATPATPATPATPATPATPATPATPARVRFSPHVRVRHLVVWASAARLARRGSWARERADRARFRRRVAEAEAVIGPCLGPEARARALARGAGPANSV
Nature of the assay: co-immunoprecipitation from transfected 293T cells.

Assay [2] has as its target T2, TBK1 (as used in Example 6; construct not named) (Homo sapiens (Human), UniProt Q9UHD2 1-729).
T2 construct: also called HA-TBK1 (constructed, probably the one used)
T2 sequence: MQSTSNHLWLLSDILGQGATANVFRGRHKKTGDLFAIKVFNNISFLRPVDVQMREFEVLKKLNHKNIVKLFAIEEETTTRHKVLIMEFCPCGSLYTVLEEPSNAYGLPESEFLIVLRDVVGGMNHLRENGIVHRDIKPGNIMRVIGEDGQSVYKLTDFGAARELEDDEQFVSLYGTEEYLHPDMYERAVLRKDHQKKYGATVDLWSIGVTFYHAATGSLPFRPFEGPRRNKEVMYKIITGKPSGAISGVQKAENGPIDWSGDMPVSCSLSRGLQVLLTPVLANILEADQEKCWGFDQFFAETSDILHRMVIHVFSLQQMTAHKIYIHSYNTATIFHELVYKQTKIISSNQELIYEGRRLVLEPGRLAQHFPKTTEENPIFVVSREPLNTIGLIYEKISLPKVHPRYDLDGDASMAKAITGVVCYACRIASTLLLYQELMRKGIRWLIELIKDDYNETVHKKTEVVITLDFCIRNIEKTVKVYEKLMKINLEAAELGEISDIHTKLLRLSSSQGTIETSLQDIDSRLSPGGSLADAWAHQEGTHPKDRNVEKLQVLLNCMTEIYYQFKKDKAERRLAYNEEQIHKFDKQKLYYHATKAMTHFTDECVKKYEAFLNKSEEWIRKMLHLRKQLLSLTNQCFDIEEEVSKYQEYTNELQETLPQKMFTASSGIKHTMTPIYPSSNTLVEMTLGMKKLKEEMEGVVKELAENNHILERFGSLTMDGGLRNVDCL
Briefly: co-immunoprecipitation from transfected 293T cells.

B1: FLAG-dN200, a truncated form of Ebola VP35 (other)
chain: NNLNSTTSLTEENFGKPDISAKDLRNIMYDHLPGFGTAFHQLVQVICKLGKDSNSLDIIHAEFQASLAEGDSPQCALIQITKRVPIFQDAAPPVIHIRSRGDIPRACQKSLRPVPPSPKIDRGWVCVFQLQDGKTLGLKI
notes: also called control protein dN200
As to B1, the binding result in assay [1] is “no binding”.

B2: FLAG-γ134.5 Δ106 (other)
chain: MARRRRHRGPRRPRPPGPTGAVPTAQSQVTSTPNSEPAVRSAPAAAPPPPPASGPPPSCSLLLRQWLHVPEPPGAGPGGGANPSHPPSRPFRLPPRLALRLRVTAEHLARLRLRRAGGEGAPEPPATPATPATPATPATPATPATPATPATPATPARVRFSPHVRVRHLVVWASAARLARRGSWARERADRARFRRRVAEAEAVIGPCLGPEARARALARGAGPANSV
notes: the printed limits overlap with the neighbouring deletions, so the exact junction is uncertain
As for B2, in assay [2], the binding result is “no binding”.
